The source of these data is article PMC6760808.

Where two headings read alike, the source gives them in different places.

Test [1] concerns the target Cer-NPHP4-YC (UniProt O75161). In words: split reporter (BiFC, NanoBiT); BiFC: Cer-NPHP-YC co-expressed with YN-myc-Nup in NIH 3T3 cells in serum-free medium; fixed 48 hours post-transfection; YFP fluorescence at the base of the primary cilium, cells counted across two independent experiments.
The target of test [2] is Cer-NPHP4-YC (UniProt O75161). The test is described as above. The source holds these as a separate data set.

Sequence of UniProt O75161 (O75161 whole entry): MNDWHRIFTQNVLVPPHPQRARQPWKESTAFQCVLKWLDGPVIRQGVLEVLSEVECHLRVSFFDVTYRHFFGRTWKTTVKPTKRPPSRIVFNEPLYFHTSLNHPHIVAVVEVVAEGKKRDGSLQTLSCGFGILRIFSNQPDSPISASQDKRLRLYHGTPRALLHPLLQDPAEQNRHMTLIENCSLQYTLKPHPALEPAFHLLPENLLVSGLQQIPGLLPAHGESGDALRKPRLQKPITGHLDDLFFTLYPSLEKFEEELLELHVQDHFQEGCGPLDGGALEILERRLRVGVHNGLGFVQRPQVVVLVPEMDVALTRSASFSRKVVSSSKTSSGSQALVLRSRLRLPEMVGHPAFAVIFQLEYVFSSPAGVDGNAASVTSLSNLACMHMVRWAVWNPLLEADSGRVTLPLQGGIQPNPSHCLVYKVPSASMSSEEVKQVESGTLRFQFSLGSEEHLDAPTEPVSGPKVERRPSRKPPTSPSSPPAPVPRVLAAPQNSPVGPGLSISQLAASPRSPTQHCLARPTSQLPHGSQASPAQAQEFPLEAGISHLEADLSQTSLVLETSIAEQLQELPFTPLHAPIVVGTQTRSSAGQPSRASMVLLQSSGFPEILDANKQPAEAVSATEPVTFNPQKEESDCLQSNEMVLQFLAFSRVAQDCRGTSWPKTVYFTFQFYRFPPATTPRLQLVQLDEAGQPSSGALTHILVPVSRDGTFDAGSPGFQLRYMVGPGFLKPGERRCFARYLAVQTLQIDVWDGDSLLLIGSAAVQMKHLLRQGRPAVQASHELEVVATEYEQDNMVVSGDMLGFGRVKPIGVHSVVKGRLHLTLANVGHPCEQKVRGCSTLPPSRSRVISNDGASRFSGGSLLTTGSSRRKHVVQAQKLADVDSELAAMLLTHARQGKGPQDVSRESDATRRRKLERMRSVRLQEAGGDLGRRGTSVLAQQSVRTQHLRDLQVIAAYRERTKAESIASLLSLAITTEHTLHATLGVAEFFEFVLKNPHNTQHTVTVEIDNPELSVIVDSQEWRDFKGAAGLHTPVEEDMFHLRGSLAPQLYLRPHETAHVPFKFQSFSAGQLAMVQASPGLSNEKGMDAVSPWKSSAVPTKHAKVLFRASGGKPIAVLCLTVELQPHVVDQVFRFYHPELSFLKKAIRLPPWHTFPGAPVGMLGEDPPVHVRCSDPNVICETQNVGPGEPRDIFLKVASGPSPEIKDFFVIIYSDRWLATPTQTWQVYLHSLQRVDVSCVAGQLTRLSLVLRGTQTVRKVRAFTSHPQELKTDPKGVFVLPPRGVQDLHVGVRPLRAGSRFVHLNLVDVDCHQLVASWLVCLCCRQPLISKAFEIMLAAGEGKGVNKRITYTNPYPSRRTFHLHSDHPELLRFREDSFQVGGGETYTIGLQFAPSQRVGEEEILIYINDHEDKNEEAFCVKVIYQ

As to “YN-myc-Nup35 (from UniProt Q8NFH5 1-326) (natural protein)”, the cells with BiFC signal in test [1] is 4 of 35 cells; in test [2], 4 of 30 cells.
